Measured values taken from publication PMC10726167.

Target: FIV Pr50^Gag-His6-tagged protein (feline immunodeficiency virus Gag precursor polyprotein) (feline immunodeficiency virus (Petaluma strain 34TF10))
Test: dynamic light scattering; purified Pr50^Gag in solution, HEPES-KOH buffer (pH 8); hydrodynamic radius from volume and number distribution

Substance: FIV Pr50^Gag-His6-tagged protein (feline immunodeficiency virus Gag precursor polyprotein) (natural protein)
- stoichiometry N: 2
